# From the DeepSol protein solubility set
# Experiment: soluble on expression in E. coli; label from the status in PepcDB or PDB records
row,Sequence,soluble on expression in E. coli
1,MGSDKIHHHHHHMSRLAHNKALPYKIIVDLSFHRTRLPSDVSSLIKFEQRPAIINIHGLLGSHVMFHSLNKLLSRKLDADIFSVDVRNHGISPKAIPYDYTTLTNDLIYFIETHIGLERPIYLLGFSMGGKIALLTTLYKNINIRKCISIDLPPYETPELDPMILQNYDLIMRIIRRDVKILRGSPSWQKKVLELFKSLECNKRKCGGAVALYFANGFLSVKSNNVHQAQLHYEQQQHDPYINYSMPLSSMPNLLDEVKKWPDLSNQRDFFQKGTASRKVLFMKGLQSNFINNDYSLLRYNFPCADVREFNTGHNLLLENPEDSFKCILNFFAEETLDFE,not soluble
2,MGSDKIHHHHHHMKKKIIHTLVYNYEIPVSLEEHLICLKPRSNSFQELSNFDLQIFPSPYSIFPLLSDNGDDIFKLLFTGSTNSLKIKTESDIETNIHPDLYQLKNDYDLSLPLKIESNDSLIGFIKGWFPNGQHDPAAIRIAQEALAGINNNVLDFLYHLIELIKDRVKYTPRHIGPAWTSGRTLSERVGSCRDLAILLMETCRCVGIPSRFVSGYQFMDQAPDKYELHAWTEVYIPGFGWRGFDPSGCGLINHNYVALASSSKSELVAPLRGSFVGPSNLKSELEWKIDIT,not soluble
3,AHHHHHHGSIIIYTTFPTWESAEKVTKALLEERLVACANLREHKAFYWWQGKIEEDNEIGVILKTREDLWEEVKKRIKELHPYTVPAIIKINVEDVNEEYLKWLLEETKST,not soluble
4,MPSKQVGWWTMSEHTNDEVQPTALSGNDAVNRAAEQWKESAHRNIPGLGDLPIPDDTANLREGPNLHDGLLALLPLVGVWRGTGHADTAEEGQYAFGQQITFAHDGENYLTYESRIWKLDDEGNSTDLDYRESGFWRISLKDEIEVVLTHSTGVAEIFYGEPMNERAWQIESASTMVTAQGPATLGPGKRLYGLMPNNNLGWVDERMVDGEMRPRMSAELSRVIG,not soluble
5,DALESKKINEALLKQGEALINQLNDRARADTVRYAEEVVKTAAERVKEASQNLTDYRIANGVFDLKAQSEVQMGLVSKLQDELIVIQTQLDQVKAVTPENPQIPGLQAREQSLRKEIDQQLRAISGGGHSSLSNQAAEYQRVYLENQLAEQQLAAAMTSLESAKVEADRQQLYLEVISQPSLPDLAHEPKR,soluble
6,MSLNSQGYAVVDFETTGLSPAKGDRAIEIGLVHVAPDGTLEDEHETLIHVDRSVGASWVHHITARELLHAPDFEGIAHELRDLLAGRVFVAHNVSFDSRFLLAEYSRMGASIPVDQSTMLCTMKLSRSLIGRGKLADCCEYFGIANEDAHSALSDAHATAILLGRLLEADPKWPGFQRRLDAAGAAAEQWPTEGHHHHHH,not soluble
7,ARVDQTPQRITKETGESLTINCVVRDSRCVLSTGYWYRKPPGSRNEESISDGGRYVETVNRGSKSFSLRINDLTVKDSGTYRCKPESRYGSYDAVCAALNDQYGGGTVVTVNAAAHHHHHH,soluble
8,MGSDKIHHHHHHMMGGFTVLIEMHCHTSEYSSCSGVAAVNLVRQVAAKNLQGIVLTDHHHLWEASELADVRRRAEVPDHFVILAGQEVTTPELGDVLVFGADATIERGTPLAEIRRRYPAAALVWAHPYRRGKRPTPEQLCHPLLDGVEIFNSNHTVRENSQGLQDWHRDRFTAIAGTDTHGENYAGLYPTQFDHAVKTIADLAAEIRHGRCRPFLKEIPRSGANSQVIEVTIGTKGADEVRERLIIKEIGTRHKWRSAERAFRIMGEIVGHGFDEGKFRVPRPIDEDEASMTLIEQGLRGKSLFDKLLTAEPEDGRAYLSLAAGWLARLHGCRLRITPRDEFLVREDERLARYLERFTAIGHRHTRKVQEILAAVAAEERRVVAEGSAYMVQGHGDFHPKNVFVGQDVMENRSTLFVAAIDFESSYVLPRAFDVGCFLAQFRNQFYHYGEIVNAYPEELFLEAYLRDSDQVEPDFLRQVELFRARTNMSIAAYLVKVGLGDSEDLWRVIVEAERSISNLSTGPAG,not soluble
9,MGSDKIHHHHHHMLVVTTACNLDCAYCYEGGGNGQGEMMDLDTALRALDLVAASNQPFHVQLTGGEPLLAGELVFRILEYIRNNNLPATTAIQTNGVLLDHQTARRLHSFGTAVGVSVDGLPAIQEQLRGQGAATWKALAMLDSERVPFSVTTVLSSRNTRDLSTLGMALHSMPAASAIGLDLLVQKGSAAAKIGVQPPDAVTIRSGVTRLLATLDVLNAQRSRPLILRERQTVLKALGRDEARPYCQACTGSSLAVTPRGELYPCTQTLGDARFHLGTLDHPRLSGTALPDGRLPKREECAGCGLQGRCPGDCPSRLHYNGADGAGLVCALYRTICDYCLYKGEIPS,not soluble
